Data from patent US20230110958A1 (Regeneron, published 2023).

Key:
[1] = biological target: T1, murine IL27 receptor (IL27Ra and gp130) on mouse cells (MC9/STAT3-Luc reporter cells; splenic CD4+ T cells) (mouse, UniProt O70394 25-623; Q00560 23-917); assay: cell-based or functional assay
T1 sequence (looked up) 1: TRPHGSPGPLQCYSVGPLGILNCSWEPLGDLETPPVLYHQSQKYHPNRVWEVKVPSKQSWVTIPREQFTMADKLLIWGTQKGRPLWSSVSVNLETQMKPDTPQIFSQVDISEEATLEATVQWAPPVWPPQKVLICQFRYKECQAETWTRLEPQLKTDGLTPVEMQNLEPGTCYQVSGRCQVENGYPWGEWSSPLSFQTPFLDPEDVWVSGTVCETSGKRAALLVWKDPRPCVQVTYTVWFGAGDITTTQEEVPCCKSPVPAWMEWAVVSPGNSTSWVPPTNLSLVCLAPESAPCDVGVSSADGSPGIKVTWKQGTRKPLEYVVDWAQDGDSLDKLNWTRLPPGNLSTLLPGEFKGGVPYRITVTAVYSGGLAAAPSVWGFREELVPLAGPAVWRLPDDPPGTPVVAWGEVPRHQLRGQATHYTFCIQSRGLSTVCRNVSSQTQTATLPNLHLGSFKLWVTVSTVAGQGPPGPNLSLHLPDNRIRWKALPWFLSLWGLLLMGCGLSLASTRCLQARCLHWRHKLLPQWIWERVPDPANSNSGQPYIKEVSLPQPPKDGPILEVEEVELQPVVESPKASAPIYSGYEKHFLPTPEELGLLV
T1 sequence (looked up) 2: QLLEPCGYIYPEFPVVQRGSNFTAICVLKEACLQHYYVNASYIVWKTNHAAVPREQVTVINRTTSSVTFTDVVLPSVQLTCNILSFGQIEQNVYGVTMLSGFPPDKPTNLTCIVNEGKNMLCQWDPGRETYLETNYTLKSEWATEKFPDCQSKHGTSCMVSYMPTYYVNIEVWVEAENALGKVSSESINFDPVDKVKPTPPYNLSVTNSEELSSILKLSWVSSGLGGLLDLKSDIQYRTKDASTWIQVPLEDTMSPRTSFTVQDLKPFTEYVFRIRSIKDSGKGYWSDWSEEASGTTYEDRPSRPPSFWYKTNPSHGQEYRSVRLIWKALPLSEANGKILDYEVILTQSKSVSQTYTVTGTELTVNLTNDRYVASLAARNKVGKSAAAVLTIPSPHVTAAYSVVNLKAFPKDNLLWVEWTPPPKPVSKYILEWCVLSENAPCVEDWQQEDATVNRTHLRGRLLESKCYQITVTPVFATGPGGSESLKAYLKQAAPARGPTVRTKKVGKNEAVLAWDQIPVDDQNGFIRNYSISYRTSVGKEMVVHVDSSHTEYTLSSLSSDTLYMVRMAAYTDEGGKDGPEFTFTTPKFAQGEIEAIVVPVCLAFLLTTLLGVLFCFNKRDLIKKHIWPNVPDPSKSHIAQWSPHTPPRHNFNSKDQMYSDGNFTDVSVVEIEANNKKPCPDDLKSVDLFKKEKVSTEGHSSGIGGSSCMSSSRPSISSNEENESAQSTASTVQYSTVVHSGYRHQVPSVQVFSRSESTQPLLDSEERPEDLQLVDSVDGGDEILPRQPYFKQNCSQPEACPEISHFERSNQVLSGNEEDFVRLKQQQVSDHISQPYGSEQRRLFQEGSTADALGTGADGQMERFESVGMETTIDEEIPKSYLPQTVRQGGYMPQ

[2] = biological target: T1, murine IL27 receptor (IL27Ra and gp130) …; assay: cell-based or functional assay; remark: listed apart in the source

Binder	EC50 (M), STAT3 luciferase, MC9/STAT3-Luc cells [1] [M]	FOLD INDUCTION, STAT3 luciferase, MC9/STAT3-Luc cells [1] [fold]	EC50 (M), STAT3 luciferase, MC9 cells [2] [M]	FOLD INDUCTION, STAT3 luciferase, MC9 cells [2] [fold]
IL27M23, monovalent Fc x EB13-p28 (Y202A, Q203A) (Fc fusion) chain 1: ESKYGPPCPPCPAPPVAGPSVFLFPPKPKDTLMISRTPEVTCVVVDVSQEDPEVQFNWYVDGVEVHNAKTKPREEQFNSTYRVVSVLTVLHQDWLNGKEYKCKVSNKGLPSSIEKTISKAKGQPREPQVYTLPPSQEEMTKNQVSLWCLVKGFYPSDIAVEWESNGQPENNYKTTPPVLDSDGSFFLYSRLTVDKSRWQEGNVFSCSVMHEALHNHYTQKSLSLSLGKGGGGSGGGGSGGGGSYTETALVALSQPRVQCHASRYPVAVDCSWTPLQAPNSTRSTSFIATYRLGVATQQQSQPCLQRSPQASRCTIPDVHLFSTVPYMLNVTAVHPGGASSSLLAFVAERIIKPDPPEGVRLRTAGQRLQVLWHPPASWPFPDIFSLKYRLRYRRRGASHFRQVGPIEATTFTLRNSKPHAKYCIQVSAQDLTDYGKPSDWSLPGQVESAPHKPGGGGSGGGGSGGGGSGGGGSFPTDPLSLQELRREFTVSLYLARKLLSEVQGYVHSFAESRLPGVNLDLLPLGYHLPNVSLTFQAWHHLSDSERLCFLATTLRPFPAMLGGLGTQGTWTSSEREQLWAMRLDLRDLHRHLRFQVLAAGFKCSKEEEDKEEEEEEEEEEKKLPLGALGGPNQVSSQVSWPQLLYTAALLHSLELVLSRAVRDLLLLSLPRRPGSAWDS chain 2: ESKYGPPCPPCPAPPVAGPSVFLFPPKPKDTLMISRTPEVTCVVVDVSQEDPEVQFNWYVDGVEVHNAKTKPREEQFNSTYRVVSVLTVLHQDWLNGKEYKCKVSNKGLPSSIEKTISKAKGQPREPQVYTLPPSQEEMTKNQVSLSCAVKGFYPSDIAVEWESNGQPENNYKTTPPVLDSDGSFFLVSRLTVDKSRWQEGNVFSCSVMHEALHNRFTQKSLSLSPGK	1.98e-11	5.34	–	–
IL27M14, 2:2 complex between IL27M13 (p28-Fc) and EBI3-mmh (Fc fusion) chain 1: FPTDPLSLQELRREFTVSLYLARKLLSEVQGYVHSFAESRLPGVNLDLLPLGYHLPNVSLTFQAWHHLSDSERLCFLATTLRPFPAMLGGLGTQGTWTSSEREQLWAMRLDLRDLHRHLRFQVLAAGFKCSKEEEDKEEEEEEEEEEKKLPLGALGGPNQVSSQVSWPQLLYTYQLLHSLELVLSRAVRDLLLLSLPRRPGSAWDSGGGGSGGGGSGGGGSESKYGPPCPPCPAPPVAGPSVFLFPPKPKDTLMISRTPEVTCVVVDVSQEDPEVQFNWYVDGVEVHNAKTKPREEQFNSTYRVVSVLTVLHQDWLNGKEYKCKVSNKGLPSSIEKTISKAKGQPREPQVYTLPPSQEEMTKNQVSLTCLVKGFYPSDIAVEWESNGQPENNYKTTPPVLDSDGSFFLYSRLTVDKSRWQEGNVFSCSVMHEALHNHYTQKSLSLSLGK chain 2: YTETALVALSQPRVQCHASRYPVAVDCSWTPLQAPNSTRSTSFIATYRLGVATQQQSQPCLQRSPQASRCTIPDVHLFSTVPYMLNVTAVHPGGASSSLLAFVAERIIKPDPPEGVRLRTAGQRLQVLWHPPASWPFPDIFSLKYRLRYRRRGASHFRQVGPIEATTFTLRNSKPHAKYCIQVSAQDLTDYGKPSDWSLPGQVESAPHKPEQKLISEEDLGGEQKLISEEDLHHHHHH	–	–	2.81e-10	2.71
IL27M18, 2:2 complex between IL27M17 (Fc-p28) and EBI3-mmh (Fc fusion) chain 1: ESKYGPPCPPCPAPPVAGPSVFLFPPKPKDTLMISRTPEVTCVVVDVSQEDPEVQFNWYVDGVEVHNAKTKPREEQFNSTYRVVSVLTVLHQDWLNGKEYKCKVSNKGLPSSIEKTISKAKGQPREPQVYTLPPSQEEMTKNQVSLTCLVKGFYPSDIAVEWESNGQPENNYKTTPPVLDSDGSFFLYSRLTVDKSRWQEGNVFSCSVMHEALHNHYTQKSLSLSLGKGGGGSGGGGSGGGGSFPTDPLSLQELRREFTVSLYLARKLLSEVQGYVHSFAESRLPGVNLDLLPLGYHLPNVSLTFQAWHHLSDSERLCFLATTLRPFPAMLGGLGTQGTWTSSEREQLWAMRLDLRDLHRHLRFQVLAAGFKCSKEEEDKEEEEEEEEEEKKLPLGALGGPNQVSSQVSWPQLLYTYQLLHSLELVLSRAVRDLLLLSLPRRPGSAWDS chain 2: YTETALVALSQPRVQCHASRYPVAVDCSWTPLQAPNSTRSTSFIATYRLGVATQQQSQPCLQRSPQASRCTIPDVHLFSTVPYMLNVTAVHPGGASSSLLAFVAERIIKPDPPEGVRLRTAGQRLQVLWHPPASWPFPDIFSLKYRLRYRRRGASHFRQVGPIEATTFTLRNSKPHAKYCIQVSAQDLTDYGKPSDWSLPGQVESAPHKPEQKLISEEDLGGEQKLISEEDLHHHHHH	–	–	2.36e-10	2.86

Results, then the binder that gave them:

EC50 (M), STAT3 luciferase, MC9/STAT3-Luc cells [1] [M]	FOLD INDUCTION, STAT3 luciferase, MC9/STAT3-Luc cells [1] [fold]	EC50 (M), STAT3 luciferase, MC9 cells [2] [M]	FOLD INDUCTION, STAT3 luciferase, MC9 cells [2] [fold]	Binder
–	4.35	–	–	IL27M25, monovalent Fc x EB13-p28 (L138A, R145A, H146A) (Fc fusion) chain 1: ESKYGPPCPPCPAPPVAGPSVFLFPPKPKDTLMISRTPEVTCVVVDVSQEDPEVQFNWYVDGVEVHNAKTKPREEQFNSTYRVVSVLTVLHQDWLNGKEYKCKVSNKGLPSSIEKTISKAKGQPREPQVYTLPPSQEEMTKNQVSLWCLVKGFYPSDIAVEWESNGQPENNYKTTPPVLDSDGSFFLYSRLTVDKSRWQEGNVFSCSVMHEALHNHYTQKSLSLSLGKGGGGSGGGGSGGGGSYTETALVALSQPRVQCHASRYPVAVDCSWTPLQAPNSTRSTSFIATYRLGVATQQQSQPCLQRSPQASRCTIPDVHLFSTVPYMLNVTAVHPGGASSSLLAFVAERIIKPDPPEGVRLRTAGQRLQVLWHPPASWPFPDIFSLKYRLRYRRRGASHFRQVGPIEATTFTLRNSKPHAKYCIQVSAQDLTDYGKPSDWSLPGQVESAPHKPGGGGSGGGGSGGGGSGGGGSFPTDPLSLQELRREFTVSLYLARKLLSEVQGYVHSFAESRLPGVNLDLLPLGYHLPNVSLTFQAWHHLSDSERLCFLATTLRPFPAMLGGLGTQGTWTSSEREQLWAMRADLRDLHAALRFQVLAAGFKCSKEEEDKEEEEEEEEEEKKLPLGALGGPNQVSSQVSWPQLLYTYQLLHSLELVLSRAVRDLLLLSLPRRPGSAWDS chain 2: ESKYGPPCPPCPAPPVAGPSVFLFPPKPKDTLMISRTPEVTCVVVDVSQEDPEVQFNWYVDGVEVHNAKTKPREEQFNSTYRVVSVLTVLHQDWLNGKEYKCKVSNKGLPSSIEKTISKAKGQPREPQVYTLPPSQEEMTKNQVSLSCAVKGFYPSDIAVEWESNGQPENNYKTTPPVLDSDGSFFLVSRLTVDKSRWQEGNVFSCSVMHEALHNRFTQKSLSLSPGK
3.85e-10	2.8	–	–	IL27M26, monovalent Fc x EB13-p28 (L198A, L199A) (Fc fusion) chain 1: ESKYGPPCPPCPAPPVAGPSVFLFPPKPKDTLMISRTPEVTCVVVDVSQEDPEVQFNWYVDGVEVHNAKTKPREEQFNSTYRVVSVLTVLHQDWLNGKEYKCKVSNKGLPSSIEKTISKAKGQPREPQVYTLPPSQEEMTKNQVSLWCLVKGFYPSDIAVEWESNGQPENNYKTTPPVLDSDGSFFLYSRLTVDKSRWQEGNVFSCSVMHEALHNHYTQKSLSLSLGKGGGGSGGGGSGGGGSYTETALVALSQPRVQCHASRYPVAVDCSWTPLQAPNSTRSTSFIATYRLGVATQQQSQPCLQRSPQASRCTIPDVHLFSTVPYMLNVTAVHPGGASSSLLAFVAERIIKPDPPEGVRLRTAGQRLQVLWHPPASWPFPDIFSLKYRLRYRRRGASHFRQVGPIEATTFTLRNSKPHAKYCIQVSAQDLTDYGKPSDWSLPGQVESAPHKPGGGGSGGGGSGGGGSGGGGSFPTDPLSLQELRREFTVSLYLARKLLSEVQGYVHSFAESRLPGVNLDLLPLGYHLPNVSLTFQAWHHLSDSERLCFLATTLRPFPAMLGGLGTQGTWTSSEREQLWAMRLDLRDLHRHLRFQVLAAGFKCSKEEEDKEEEEEEEEEEKKLPLGALGGPNQVSSQVSWPQAAYTYQLLHSLELVLSRAVRDLLLLSLPRRPGSAWDS chain 2: ESKYGPPCPPCPAPPVAGPSVFLFPPKPKDTLMISRTPEVTCVVVDVSQEDPEVQFNWYVDGVEVHNAKTKPREEQFNSTYRVVSVLTVLHQDWLNGKEYKCKVSNKGLPSSIEKTISKAKGQPREPQVYTLPPSQEEMTKNQVSLSCAVKGFYPSDIAVEWESNGQPENNYKTTPPVLDSDGSFFLVSRLTVDKSRWQEGNVFSCSVMHEALHNRFTQKSLSLSPGK
